Patent publication US20240084032A1 (BLUEFIN BIOMEDICINE, published 2024)

Tests used:
[1] = biological target: T1, Cynomolgus monkey CDCP1 (Macaca fascicularis, UniProt A0A2K5VLA8); experiment: Octet BLI, Ab on Protein A sensor, recombinant CDCP1 analyte
T1 construct: recombinant ectodomain from CHO cells; construct not given; also called cyCDCP1; BBP468

[2] = biological target: T2, recombinant human CDCP1 ECD (AA30-667) with C-terminal His tag (human, UniProt Q9H5V8 30-667); experiment: as above
T2 construct: range 30-667; also called FL-ECD; recombinant FL-ECD
Description: Affinity: The affinity of antibodies to various recombinant CDCP1 molecules was determined on an Octet Red (Pall, ForteBio) instrument. After loading reagents into a 96-well plate, the Octet Red with Protein A-conjugated biosensors was programmed as follows: 30 seconds for baseline #1; 120 seconds to immobilize the antibody; 30 seconds for baseline #2; 300 seconds for association of antibody to recombinant CDCP1; and 300-600 seconds for dissociation of recombinant CDCP1 from the antibody.

[3] = biological target: human CDCP1 endogenously expressed on cancer cell lines (human, UniProt Q9H5V8 30-836); experiment: cell-based or functional assay
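Wherever Kd is given: antibody captured for 120 s on the sensor, followed by 300 s association with CDCP1 and a 300–600 s dissociation phase.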

Row | Binder | Kd [1] [nM] | Kd [2] [nM] | further results
1 | 12C2 (antibody, V domains shown) VH: QEQLVESGGGVVQPGRSLRLSCVTSGFTFSSYGMHWVRQAPGKGLEWVAVIWYDGTNKYYADTVKGRFTISRDNSKNTLYLQMNSLRAEDTGVYYCAREGCDTISCPYYYYGMDVWGQGTTITVSS VL: DILMTQSPSSLSASVGDRVTITCRASQGINYYLAWYQQKPGKVPKLLIYTASTLQSGVPSRFSGSGSGTDFTLTISSLQPEDVATYFCQKYNSAPFTFGPGTKLEIK | 8 | 1 | 
2 | 14H4 (antibody, V domains shown) VH: EVQLLESGGDLVQPGGSLRLSCAASGFTFNSYAMSWVRQAPGKGLEWVSVLSGSGGDIHYADSVKGRFTVSRDNSKNMLYLQMNSLRAEDTAVYFCAQQWPQGYWGQGTLVTVSS VL: DIQMTQSPSSLSASVGDRVTITCRASQGISIYLAWFQQKPGKVPKLLIYAASTLQSGVPSRFSGSGSGTDFTLTISSLQPEDVATYYCQKYNSAPFTFGPGTKVEIK | 5 | < 1 | 
3 | 38E11-vcMMAE (other, maleimidocaproyl-valine-citrulline-p-aminobenzoyloxycarbonyl-MMAE on hinge region cysteine thiols, positions not given; DAR 3.9) VH: EVQLLESGGGLVQPGGSLRLSCAASGFTFSNYAMNWVRQAPGKGLEWVSAISGGGGSTYYADSVKGRFTISRDNSKNTLYLQMNSLRAEDTAVYYCAKESITMVRGVMDYYGMDVWGQGTTVTVSS VL: DIQLTQSPSFLSASVGDRVTITCRASQGISSYLAWYQQKPGKAPKLLIYAASTLQGGVPSRFSGSGSGTEFTLTISSLQPEDFATYYCQHLNRFPRTFGQGTKVEIK |  |  | EC50 of killing, Cal-12T NSCLC cells, CellTiter Glo, 96 hrs [3]: > 1 µg/mL; EC50 of killing, DU145 prostate cancer cells, CellTiter Glo, 96 hrs [3]: 1 µg/mL; EC50 of killing, H1650 NSCLC cells, CellTiter Glo, 96 hrs [3]: > 1 µg/mL; EC50 of killing, HCC15 NSCLC cells, CellTiter Glo, 96 hrs [3]: > 1 µg/mL; EC50 of killing, HCC44 NSCLC cells, CellTiter Glo, 96 hrs [3]: > 1 µg/mL; EC50 of killing, HCC78 NSCLC cells, CellTiter Glo, 96 hrs [3]: > 1 µg/mL; EC50 of killing, HCC827 NSCLC cells, CellTiter Glo, 96 hrs [3]: > 1 µg/mL; EC50 of killing, PC3 prostate cancer cells, CellTiter Glo, 96 hrs [3]: 0.1 µg/mL
4 | 50D6 (antibody, V domains shown) VH: EVQVLESGGGLVQPGGSLRLSCAASGFTFSNYAMNWVRQAPGKGLEWVSAISGGGGSTYYADSVKGRATISRDNSENTLYLQMNSLRAEDTAVYYCAKTSSGWYDSYYDYYGLDVWGQGTTVTVSS VL: DIQLTQSPSFLSASVGDRVTITCRASQGISNYLAWYQQKPGKVPKLLIYAVSTLQSGVPSRFSGSGSGTEFTLTISSLQPEDFATYYCQQLNSYPFTFGGGTKLEIK | < 1 | < 1 | 
5 | 38E11-PBD (other, MA-PEG8-VA-PAB-SG3199 (PBD) on hinge region cysteine thiols, positions not given; DAR 2.3) VH: EVQLLESGGGLVQPGGSLRLSCAASGFTFSNYAMNWVRQAPGKGLEWVSAISGGGGSTYYADSVKGRFTISRDNSKNTLYLQMNSLRAEDTAVYYCAKESITMVRGVMDYYGMDVWGQGTTVTVSS VL: DIQLTQSPSFLSASVGDRVTITCRASQGISSYLAWYQQKPGKAPKLLIYAASTLQGGVPSRFSGSGSGTEFTLTISSLQPEDFATYYCQHLNRFPRTFGQGTKVEIK |  |  | EC50 of killing, Cal-12T NSCLC cells, CellTiter Glo, 96 hrs [3]: > 1 µg/mL; EC50 of killing, DU145 prostate cancer cells, CellTiter Glo, 96 hrs [3]: 0.1 µg/mL; EC50 of killing, H460 NSCLC cells, CellTiter Glo, 96 hrs [3]: ~0.1 µg/mL; EC50 of killing, H1299 NSCLC cells, CellTiter Glo, 96 hrs [3]: > 1 µg/mL; EC50 of killing, H1650 NSCLC cells, CellTiter Glo, 96 hrs [3]: ~1 µg/mL; EC50 of killing, HCC44 NSCLC cells, CellTiter Glo, 96 hrs [3]: ~1 µg/mL; EC50 of killing, HCC827 NSCLC cells, CellTiter Glo, 96 hrs [3]: > 1 µg/mL; EC50 of killing, LNCAP prostate cancer cells, CellTiter Glo, 96 hrs [3]: 0.01 µg/mL; EC50 of killing, PC3 prostate cancer cells, CellTiter Glo, 96 hrs [3]: 1 µg/mL
6 | 38E11 (antibody, human IgG1, V domains shown, also called human antibody 38E11) VH: EVQLLESGGGLVQPGGSLRLSCAASGFTFSNYAMNWVRQAPGKGLEWVSAISGGGGSTYYADSVKGRFTISRDNSKNTLYLQMNSLRAEDTAVYYCAKESITMVRGVMDYYGMDVWGQGTTVTVSS VL: DIQLTQSPSFLSASVGDRVTITCRASQGISSYLAWYQQKPGKAPKLLIYAASTLQGGVPSRFSGSGSGTEFTLTISSLQPEDFATYYCQHLNRFPRTFGQGTKVEIK | 4 | 2 | 
7 | 18C6 (antibody, human IgG1, V domains shown, also called 18C06; human antibody 18C6) VH: QVQLQESGPGQVKPSETLSLTCTVSGGSISSSFWSWIRQPPGKGLEWIGYIYYSESTNYNPSLKRRVTLSVDTSKNQFSLKLTSVTTADTAVYYCARNIGVAGLFDYWGQGTLVTVSS VL: not shown | 190 | 25 | 
8 | 27H10 (antibody, human IgG1, V domains shown, also called human antibody 27H10) VH: QVQLVQSGAEVKKPGSSVKVSCKASGGTFSSYAMSWVRQAPGQGLEWMGGIIPILGTTNYAQKFQGRVTITADKSTSTAYMELSSLRSEDTAVYYCAREGLYAFDIWGQGTMVTVSS VL: DIQMTQSPSSLSASVGDRVTITCRASQSISSYLNWYQQKPGKAPKFLIYVASSLQSGVPSRFSGRGSGTDFTLTISSLQPEDFATYYCQQSYSTPWTFGQGTKVEIK | 45 | 45 | 
9 | 02F3 (antibody, V domains shown) VH: QVQLVESGGGVVQPGRSLRLSCAASGFSFSDYGIHWVRQAPGKGLEWVAVIWYDGSNKYYADSVKGRFTISRDNSKNTLYLQVNSLIAEDTAVYYCARDRGYSSGWYVDYYYYGMDVWGQGTTVTVSS VL: not shown | 83 | 8 | 
10 | 42C5 (antibody, V domains shown) VH: EVQLVESGGGLVQPGGSLRLSCAASGFTFSRYWMNWVRQAPGKGLEWVANIKQDGSEKDYVDSVKGRFTISRDNAKNSLFLQMSSLRAEDTAVYYCARVMYSSGWSFDYWGQGTLVTVSS VL: DIVMTQSPLSLPVTPGEPASISCRSSRSLLHSSGYNFLDWFLQKPGQSPQLLIFLGSDRASGVPDRFSGSGSGTDFTLKISRVETEDVGVYYCMQALQTPITFGQGTRLEIK | 12 | 2 | 
11 | 47G7 (antibody, human IgG1, V domains shown, also called human antibody 47G7) VH: EVQLVESGGGLVQPGGSLRLSCAASGFTFSSYWMSWVRQAPGKGLEWVANIKQDGSEKDYVDSVKGRFTISRDNAKNSLYLQMNSLRVEDTAVYYCAREGGSSGWTFDYWGQGTLVTVSS VL: DIVMTQSPLSLPVTPGEPASISCRSSQSLLHSSGHNFLDWYLQKPGQSPQLLIYLGSNRASGVPDRFSGSGSGTDFTLKISRVEAEDVGVYYCMQALQTPPTFGQGTKLEIK | 500 | 35 | 

The next lines start with results.

Row | Kd [1] [nM] | Kd [2] [nM] | Binder | further results
12 | 80 | 20 | 03C05 (antibody, V domains shown, also called 3C5) VH: EVQVLESGGGLVQPGGSLRLSCAASGFTFSSYVMSWVRQAPGKGLEWVSGISGSGGSTHYADSVKGRFTISRDNSKNTLYLQMNSLRAEDTALYYCAQQWPQGYWGQGTLVTVSS VL: DIQMTQSPSSLSASVGDRVTITCRASQDISIYLAWFQQKPGKVPKVLIYAASTLQSGVPSRFSGSGTGTDFTLTISSLQPEDVATYFCQKYNSAPFTFGPGTKLEIK | 
13 | > 500 | 60 | 3B11 (antibody, human IgG1, V domains shown, also called 03B11; 3B111) VH: QVQLQQWDAGLLKPSETLSLTCAVYGGSFSSYYWSWIRQPPGKGLEWIGEINHSGSTSYNPSLKSRVTISIDTSKNQFSLKLNSMTAADTAVYFCAASPYFDYWGQGTLVTVSS VL: DIQLTQSPSFLSASVGDRVTITCRASQGISSYLAWYQQKPGKAPKLLIYAASTLQSGVPSRFSGSGSGTEFTLTISSLQPEDFATYYCQQLNSYPRTFGQGTKVEIK | 
14 | 18 | 7 | 05A8 (antibody, V domains shown) VH: EVQLLESGGGLVQPGGSLRLSCAASGFTFSNYAMSWVRQAPGKGLEWVSAISGRGGSTYYADSVKGRFTISRDNSKNTLYLQMNSLRAEDTAVYYCAKDIVVVPAAKGYVMDAWGQGASVTVSS VL: not shown | 
15 | > 500 | 20 | 01E2 (antibody, V domains shown) VH: QVQLVESGGGVVQPGRSLRLSCAASGFTFSSYGMHWVRQAPGKGLEWVAVIWYAGSNKYYADSVKGRFTISRDNSKNTLYLQMNSLRAEDTAVYYCAGWDFDYWGQGTLVTVSS VL: EIVLTQSPATLSLSPGERATLSCRASQTVPNYLAWYQQKPGQAPRLLIYDASNRATDIPARFSGSGSGTDFTLTISSLEPEDFAVYYCQQRANWPPITFGQGTRLEIK | 
16 | 27 | 4 | 04G06 (antibody, V domains shown, also called 4G6) VH: QVQLVESGGGVVQPGRSLRLSCVVSGFTLSSYGMHWVRQAPGKGLEWVAVIWYDGSDKYYADSVKGRFTISRDNSKNTLYLQMNSLRAEDTAVYYCARDDWGFDYWGQGTLVTVSS VL: DIQLTQSPSFLSASVGDRVTITCRASQDISNYLAWYQQKPGKAPKLLISASTLQSGVPSRFSGSGSGTEFILTISSLQPEDFATYYCQHLNSYPFGQGTKVEIK | 
17 | 1 | < 1 | 10E2 (antibody, V domains shown, also called human antibody 10E2) VH: QVQLVESGGGVVQPGRSLRLSCAASGFTFSSYGMHWVRQAPGKGLEWVAVVWYDGTIKYYADSVKGRFTISRDNPKNTLYLQMNSLRAEDTAVYYCASQYSSGWHTDFFDVWGQGTMVTVSS VL: DIQMTQSPSTLSASVGDRVTITCRASQSISTWLAWYQQKPGKAPKFLIYKASSLESGVPSRFSGSGSGTEFTLTISSLQPDDFATYYCQQYSGYSLTFGGGTKVEIK | 
18 | 13 | 6 | 41A9 (antibody, human IgG1, V domains shown, also called 41A09; human antibody 41A9) VH: QVQLQQWGAGLLKPSETLSLTCAVYGGSFSDYYWSWIRQPPGKGLEWIGEINHSGSTNYNPSLKSRVTISVDTSKNQFSLKLSSVTAADTAVYYCARDYDVLTGHFYYYYGMDVWGQGTTVTVSS VL: EIVLTQSPATLSLSPGERATLSCRASQSVRRYLAWYQQKPGQAPRLLIYDASNRATGIPARFSGSGSGTDFTLTISSLEPEDFAVYYCQQRNNWPLTFGGGTKLEIK | 
19 | 75 | 17 | 03B05 (antibody, V domains shown, also called 3B5) VH: QVQLVESGGGVVQPGRSLRLSCAASGFTFSSYGMHWVRQAPGKGLEWVAIIWYDGSNKYYADSVKGRFTISRDNSKNTLYLQMNSLRAEDTAVYYCAKDPSYSSGYYLFDFWGQGTLVTVSS VL: not shown | 
